Like-named read-outs stand apart in the source and are kept apart here.
Key:
Assay in all cases: SPR
[1] = biological target: HLA-B*08:01.N80I.R82L.G83R/FLR (human | not stated | EBV)
[2] = biological target: HLA-B*08:01.R82L/FLR (human | not stated | EBV)
[3] = biological target: HLA-B*08:01.N80I.R82L.G83R/FLR (human | not stated | EBV); remark: listed apart in the source

Soluble KIR3DL1*001 (from UniProt P43629 22-340) (receptor)
Kd [1]: 41.9 µM | Kd [2]: > 300 µM | Kd [3]: 40.1 µM

Reference: paper PMC4282956
